B1: 34 (protein)
chain: TKKKVSVSEINFDSAVDDVQWCGNNHMTVLVKTVKGRLYRSSDGGKIWTNIAGNLADKENNKADPSSNHMNEMTTVDLIMVNSVNKNIVLIIGNQKNHYISEDSGETFRLLNYQNKINFWQFHSTKTHWALVSSWTEACYSNDDNSGECMQTLSLTKDLGRTFQLIDIYVVQFNWGDKESHLEDTIYYTRHKNRNGHQQRFSGWSKDVDFVATHNFGKSVDVLVKQGNKFLISNGYIFVAKLNDVIKQTVNMMVSTDGGKTFNKANLPENIHEKSYTVLDTSEGSIMLHVNHGTSSEKINTGNVYISDASGLNYALSLPNNIRTSSGECEFDRVLSLDGVYIANFLDVNNEIKDEDLRFQNFKSAIEEDIAPFETNTEKRKKQYNKGKNEDAVRTVISFNKGGEWSYLKAPKVDSRGNKYECGDNCYLHLHGITNYHQYAPFYSIENAVGIIMGTGNVGSHLRYESDEVNTFLSRDGGVTWIEAHKGPYIYEYGDYGGLIVMADDLRKTNQIVFSWNEGQSWFDFELGQFSIDVDNIVAEPNSASVEFLVYGTRNDVGVLYHLDFNALGQPLCKGLWAADSVSSDYETWSPTSGNFNDKCILGRKITYTRRKQTSECFNGKDLKRTVDKKPCECTPEDYECETGFTRKIGSYECKPNDPTLTIEGCTSSSYFYANAYRKVPGDICVNGWVPEKVPVPCPSYAPFNKAAK
modifications: bait human Fc-tagged dimer
B2: 75 (protein)
chain: NVVAPKSAEAVHTLTAKLDTENKAHQKYIDIINGVFSENMENFVFSITTSNGFTCSINKLDVIFDNKVTGMQKVFSDENVQYIKEASLEFKNNLLEYMKGVMPSENDFSNVRKEFQKVCVKYFSELRRKFFQIYRDPNNKNQNEDNVDNHMNIEEISQEFFSGFNPFGTMKIRKEQNPDLSQKDSLILNENNNDALTSADQKNNNMVPMENRAFSYSQQSSHVVSFDGHDEHVEQQEQHSGDNTQEDKDQLMDLPFNKDKVFSTFLKNVALLIEGNCAEAQQQAQEQTQEQTEEQEEEQNEKEIESDKQVQKDGEQKENDVQKKQKANAFTIQFSSSLSRKHISTTCNAASGNVFLRKGNKPFEHFNSPNFENMMKGVFGIIQNPFENGQPTFPFFKNINSISGIGNVDIPKNFMNDFLNNGNDQNTPISS
modifications: bait human Fc-tagged dimer
B3: 80 (protein)
chain: INPATLIQNHLYMYQTNNAINEENIYNMKKFSKLPIAENTRNIRHSTNDLYYEHSLNLEKPNEHFTLHNIKLICQQIYHNQPNQLNLRILAVLLSTSYKQENIANIFQNLCNNGLSCLFTIQLSKNKAFVDQNKIVHLKIIDTDDLKRNKNNNIRHKITVYYICEDLKYKNQKQQESNEFKYVFNYEQLAFLKCENYLTVQVEKLVGINYNKEFHNLNPEYISFYCSQRVICNTHIEDLYKEDDKKRKNYIFYELTYRCVPPKVCSFCGNNAACKLEKLYNKEKEITQFYNNVEYNDAGVFDRLLLNKEEEEERNKASFVANLEYNAINYDIDDMITVGSNTYHILEICKCSKDYVQEGSSCVKKEKDKIYIRYAKK
modifications: bait human Fc-tagged dimer
B4: 33 (protein)
chain: SSNDKNKINKNNMPLQRGASNLKDINIHNVEKKSNMESVNNNINNAACSKNLNANKVPNVAHTGVNKKGETKNEEVEKEENENEEIEKEEIENEENQQNEEDENEENQQNEEDENEENQQMNVNVDVSAEKKNKELPEEKKELQKNSEKNINKEVIKDSNKDNTFNFHKNINTAFNKNKNIYNNNNNNNNNNKAFIEKKEEAIDMKKTHCSNNNKMCKYNNMNNHMSTNKNNNQIFEESKQNVNKPIYNLKSLGNNAFKNDEKYNENDYKNNHDDDKKKYTDDSNEENIYEERNQKILLIHLLKNIKELLNRQRQNFNNFLSFLSENYQSYEKFYKSQKYQNGKNYIDKLDQQGELKNVAVVTHSFLDMSKAANGKKDKNGVFVKLMNDQNDDGDDTKDGDDTKDEDDHKNEDDHKNEDDHKNEDDHKNEDDHKNGDDNKNGDDHKNGDDNKNGDDDNGKKSHDISDIKNIIDTILQSDDITDEQKKYLEIIKKILDLEEDVLNKEKEQLQLNKNIIEVLMGKSDELRNIAVNLKNGNGDNEASQRVDLAQNIVSNLLNFAVQLKNTGNIVYNNIQGQGELLQSIEKNIDKAENDLKKSTSVNTAFTPKNVPNTEQNDQETQTDDDINDADIDENNNANDKNNCHMYKKNNCHMYKKNNCKKYFLNSHYNNYLCKKQKKYNKNDMGNKQKDNKKFKLNEAMKNHFYNIFVKETVMLKKLYKVLFELF
modifications: bait human Fc-tagged dimer
B5: 50 (protein)
chain: ANAFYVDNGQEMLIKEKEHYSSDSEHHKEESASIGNLNVFFPAENYHFSTYMGFDRRSFLPSNEIELEKMIGANFANEVKNYCSRQNVAQKIGDYLNIAFEYSRALEELRSEMILDFNKRKHLTNNADDTILHMIENAEKRKNDPNYKEAYENKDYANNANIFMNEYSNPLSTKYNKILKEYLCHLFVNNPGTKPLERLYYNSLALGELVEPIRNKFKSLASSTIDFNYEIHMASASNIYLLAHFLVLSLAYLSYNEYFTTGTKSFYSLPTILTANSDNSFFMLNEMCNIHYNPNKNFKKDITFIPIESRPKRTTTFYGERRLTCDLLELVLNAIMLININEINNVFSNNNVDGYENSLSFSHNAIRIFSKVCPKINNDNVLKCEFEESSLYNPKIIKNDASEKSSQKNLKKAFDLLRTYAEIEGHSAEGSTSPYYVSLILDDMKYNDFYKYTLWYEPRELIYGDIRGMQMKKKKKTKYIYNDFMKKSTQLKKKLIKNDLKYNLKSKGLVFLYAMIDKYGSILNKAQKAKVQFLNSASSIRYYLYLNKVIFKSAKTYLDIMKRVLEELQTSTNTPLKFLVRGNYIENINNIARNDNMFYANLFVLTALSRRDPVKDYYNDKRKMLSATLAEKFANSASMLIPHKLRKLVVSMKKGLLKKKLLTSLAKVKLLQHIPAHMLENIASSIRFTTHTIATMQIIQNAKYMSKHNFAQYDSKGMLARQIFTKGGFAEYADNLMAKWFSKGFEEYKREQIENFKMENSIDSELKDSEREDENDASEESAKKKLQDLQLEEREKMKKENSLLFNQADKWDQFINKELVRALGLWLEFNDNPANAASFVYKVVEDSKHLLENNIDNNIIFSRTVKPTKQTAFRRFFNKILSLGNMLLRKPSFRVEHALWFGATIDIKKAFILLEKVSELHKMLNNQDESWLINEAFIEIVDHVVDLSTYKHVREPFGVARNPGMMAINPKYAELSHENRLRELQNSMCADHCSSVWKVISSFALHHLKNPDSLHTYESKFSKNSFGNKIDDKDFVHNFKMILGGDAVLHYFDNLLPKTMKKDLKAMKYGVSLTSAYSLKLTKIIFSQMQLPYLSQMFYMQAPYFGHFIGKWQKKRQQSRLKEIMSFMTLGSLSAYTLFSAMDITQQAKDIGAGPVASCFTTRMSPPQQICLNSVVNAALSTSTQSAMKCVFSV
modifications: bait human Fc-tagged dimer

Each binder was assayed against FGFR4 ectodomain (Homo sapiens, UniProt P22455) (assay: AVEXIS normalised luminescence).

Binder	binding score
B1	0.648
B2	1.05
B3	1.04
B4	1.23
B5	1.17
